Results reported in US20250195212A1, “METHOD FOR GENERATING IN-SITU VASCULAR STENT AND PHOTOCURABLE DRUG-LOADED BALLOON CATHETER FOR IMPLEMENTING THE METHOD” (HANGZHOU MATRIX MEDICAL TECHNOLOGY CO., LTD., priority 2022, published 2025).

How the values were obtained:
[1] = Permeability characterization: penetration into blood vessel slices, laser confocal microscope; assay type: in vitro ADME; settings: 1 mg/mL dripped onto inner surface of 2*2 cm blood vessel slice
Protocol: 1 mg/mL of the photosensitive material with blood vessel repair function prepared in Example 1 was dripped onto the inner surface of the blood vessel, and the residual liquid on the inner surface of the blood vessel was wiped dry after a certain period of time, and the penetration depth in the blood vessel was measured using a laser confocal microscope.
Control group: a blood vessel was cut into 2*2 cm slices, with the inner surface facing upward and kept moist with 0.9% (by mass) physiological saline. 1 mg/mL of the third product in Example 1 was dripped onto the inner surface of the blood vessel, and the residual liquid on the inner surface of the blood vessel was wiped dry after a certain period of time, and the penetration depth in the blood vessel was measured using a laser confocal microscope.

[2] = system: porcine peripheral blood vessels; assay: Lumen gain and protein cross-linking after angioplasty with riboflavin balloon and photo-activation
Protocol: A porcine peripheral blood vessel was immersed in PBS buffer. Balloons (with a pore size of 50 μm and a surface porosity of 50%) was introduced into the blood vessel. The fluid prepared in Preparation Example 1 was infused to expand the balloons from the compressed state to the inflated state at a pressure of 6 atm. While maintaining the pressure of the balloons, a light source device activated the light-guiding element to emit 450 nm light, with a photocuring duration of 5 minutes.
A porcine peripheral blood vessel was immersed in PBS buffer. Balloons prepared in Preparation Example 6 was pushed into the blood vessel. The compressed balloons were expanded by injecting fluid at a pressure of 6 atm. Then, while maintaining the pressure of the balloons, the light-guiding element emitted light with a wavelength of 450 nm, with a photocuring duration of 5 minutes.
A porcine peripheral blood vessel was immersed in PBS buffer. Balloons prepared in Preparation Example 9 was pushed into the blood vessel. The compressed balloons were expanded by injecting fluid at a pressure of 6 atm. Then, while maintaining the pressure of the balloons, the light-guiding element emitted light with a wavelength of 450 nm, with a photocuring duration of 5 minutes.
A porcine peripheral blood vessel was immersed in PBS buffer. Balloons without riboflavin were pushed into the blood vessel. […]

Row | SMILES | The time when the drug is observed in the adventitia of blood vessels [1] | protein cross-linking under photo-activation / medial fiber network of treated arteries [2]
1 | N=C(N)NCCCC(N)C(=O)NCCCCC(NC(=O)C(N)CCCNC(=N)N)C(=O)NCCCCC(NC(=O)C(CCCCNC(=O)C(N)CCCNC(=N)N)NC(=O)C(N)CCCNC(=N)N)C(=O)NCCNC(=O)C(CCCCNC(=O)C(CCCCNc1ccc2c3c(cccc13)C(=O)N(CCOCCOCCOCCN1C(=O)c3cccc4c(NCCOCCOCCOCCN)ccc(c34)C1=O)C2=O)Nc1ccc2c3c(cccc13)C(=O)N(CCOCCOCCOCCN1C(=O)c3cccc4c(NCCOCCOCCOCCN)ccc(c34)C1=O)C2=O)NC(=O)C(CCCCNc1ccc2c3c(cccc13)C(=O)N(CCOCCOCCOCCN1C(=O)c3cccc4c(NCCOCCOCCOCCN)ccc(c34)C1=O)C2=O)Nc1ccc2c3c(cccc13)C(=O)N(CCOCCOCCOCCN1C(=O)c3cccc4c(NCCOCCOCCOCCN)ccc(c34)C1=O)C2=O (centres unmarked) [Experimental group] | 18 s | 
2 | Cc1cc2nc3c(=O)[nH]c(=O)nc-3n(C[C@H](O)[C@H](O)[C@H](O)CO)c2cc1C [riboflavin] |  | denser medial fiber network
